*1 amine or outer side, *2 acyl side, *3 side chain or, on linkers, in order; H or OH if unused. [ ]: non-standard residue; d: D form. U1 = 4-cyclohexylmethoxy-L-phenylalanine, O=C([C@H](Cc1ccc(OCC2CCCCC2)cc1)N[*:1])[*:2]; Bip = N[C@@H](Cc1ccc(-c2ccccc2)cc1)C(=O)O; Tpa = thiopropionic acid
B1: mCD4.2-PS1 (peptide)
peptide 1: NLHKCQLRCSSLGLLGRCAPTFCACV
peptide 2: SYDYSYDYSYDYS
modifications: not fully specified; N-terminal gamma-aminobutyric acid (gammaAbu) acylated with 3-thiopropionyl (from SATP); all six Tyr are sulfotyrosine (YSO3); N-terminal Tpa; D-proline at position 21; U1 (4-cyclohexylmethoxy-L-phenylalanine) at position 23; C-terminal amide; Lys5 N-epsilon carries the PEO2-maleimide linker bound to the thiol of the PS1 chain
B2: M48U1-PS1 (peptide)
peptide 1: NLHFCQLRCKSLGLLGRCAPTFCACV
peptide 2: SYDYSYDYSYDYS
modifications: not fully specified; N-terminal gamma-aminobutyric acid (gammaAbu) acylated with 3-thiopropionyl (from SATP); all six Tyr are sulfotyrosine (YSO3); N-terminal Tpa; D-proline at position 21; U1 (4-cyclohexylmethoxy-L-phenylalanine) at position 23; C-terminal amide; Lys11 N-epsilon carries the PEO2-maleimide linker bound to the thiol of the PS1 chain
B3: mCD4.1-PS1 (peptide)
peptide 1: NLHKCQLRCSSLGLLGRCAGSFCACV
peptide 2: SYDYSYDYSYDYS
modifications: N-terminal gamma-aminobutyric acid (gammaAbu) acylated with 3-thiopropionyl (from SATP); all six Tyr are sulfotyrosine (YSO3); N-terminal Tpa (thiopropionic acid); Bip at position 23; C-terminal …; Lys5 N-epsilon carries the PEO2-maleimide linker bound to the thiol of the PS1 chain
B4: mCD4.3-PS1 (peptide)
peptide 1: NLHKCQLRCRSLGLLGRCAPTFCACV
peptide 2: SYDYSYDYSYDYS
modifications: not fully specified; N-terminal gamma-aminobutyric acid (gammaAbu) acylated with 3-thiopropionyl (from SATP); all six Tyr are sulfotyrosine (YSO3); N-terminal Tpa; D-proline at position 21; U1 (4-cyclohexylmethoxy-L-phenylalanine) at position 23; C-terminal amide; Lys5 N-epsilon carries the PEO2-maleimide linker bound to the thiol of the PS1 chain
B5: mCD4.1 (peptide)
peptide: Tpa-NLHKCQLRCSSLGLLGRCAGS[Bip]CACV-NH2
modifications: disulfide (positions not given here); also: three disulphide bridges, pairing not given here

Key:
Experiment in all cases: cell-based or functional assay
[1] = target: gp120 of viral strain IIIB (HIV, strain IIIB)
[2] = target: gp120 of viral strain MN (HIV, strain MN, UniProt P05877 32-513)
[3] = target: gp120 of viral strain SHIV162p3 (SHIV162p3)
[4] = target: gp120 of viral strain SF162 (HIV, strain SF162, UniProt P19550 32-502)
[5] = target: gp120 of viral strain VI829 (HIV, strain VI829)
[6] = target: gp120 of viral strain VI820 (HIV, strain VI820)
[7] = target: gp120 of viral strain VI1888 (CRF01) (HIV, strain VI1888 (CRF01))
[8] = target: gp120 of viral strain MP568 (CRF02) (HIV, strain MP568 (CRF02))
[9] = target: gp120 of viral strain VI824 (HIV, strain VI824)
[10] = target: gp120 of viral strain Ca10-3 (CRF01) (HIV, strain Ca10-3 (CRF01))
[11] = target: gp120 of viral strain Bal (HIV, strain Bal)
[12] = target: gp120 of viral strain p246F10 (HIV, strain p246F10)
[13] = target: gp120 of viral strain pREJO.c/2864 cl2 (HIV, strain pREJO.c/2864 cl2)

Binder	EC50 (antiviral activity, TZM-bl cells, luciferase) [1] [nM]	EC50 (antiviral activity, TZM-bl cells, luciferase) [2] [nM]	EC50 (antiviral activity, TZM-bl cells, luciferase) [3] [nM]	EC50 (antiviral activity, TZM-bl cells, luciferase) [4] [nM]	EC50 (antiviral activity, TZM-bl cells, luciferase) [5] [nM]	EC50 (antiviral activity, TZM-bl cells, luciferase) [6] [nM]	EC50 (antiviral activity, TZM-bl cells, luciferase) [7] [nM]	EC50 (antiviral activity, TZM-bl cells, luciferase) [8] [nM]	EC50 (antiviral activity, TZM-bl cells, luciferase) [9] [nM]	EC50 (antiviral activity, TZM-bl cells, luciferase) [10] [nM]	EC50 (antiviral activity, TZM-bl cells, luciferase) [11] [nM]	EC50 (antiviral activity, TZM-bl cells, luciferase) [12] [nM]	EC50 (antiviral activity, TZM-bl cells, luciferase) [13] [nM]
Tpa-NLHFCQLRCKSLGLLGRCA[dP]T[U1]CACV-NH2 (disulfide (positions not given here)) [M48U1]	0.08	0.25	24	1	59	3.8	8420	129	29	2.7	0.96	–	–
B1	0.007	0.046	2.2	0.01	4	0.031	1060	4.9	0.68	0.12	0.034	58	0.27
B2	0.02	0.12	3.4	0.05	1.1	0.1	1070	15	2.2	0.6	0.13	–	–
B3	0.013	0.08	36	0.11	16	25	1100	310	40	0.57	0.54	723	0.66
B4	0.0025	0.026	1.4	0.008	3.6	0.024	1210	4.2	0.7	0.076	0.031	33	0.28
Tpa-NLHKCQLRCRSLGLLGRCA[dP]T[U1]CACV-NH2 (disulfide (positions not given here)) [mCD4.3]	0.16	0.37	29	0.66	221	4.2	8020	204	39	3.1	2.3	510	46
Tpa-NLHKCQLRCSSLGLLGRCA[dP]T[U1]CACV-NH2 (disulfide (positions not given here)) [mCD4.2]	0.22	0.6	69	1.24	512	6.1	9760	155	56	4.73	2	718	76
B5	29	20	5370	130	> 10000	1690	> 1000	7930	3180	96	236	> 10000	108

Source: US20170326246A1 (INSTITUT PASTEUR, published 2017)
